In publication doi:10.1101/2020.12.21.423864:

Biological target: Cadherin-11 extracellular domain 1 (Cad11-EC1), wild type, residues 1-98
Test: NMR

stoichiometry N: 2
Substance: Cadherin-11 extracellular domain 1 (Cad11-EC1), wild type, residues 1-98 (domain or fragment)
